Data reported in publication doi:10.1101/2025.08.16.670655, “A Phosphorelay Circuit Drives Extracellular Alkalinization in Plant Receptor Kinase Signaling” (bioRxiv, 2025).

Target: T1, His-BIK1 (Arabidopsis thaliana, UniProt O48814 1-395)
T1 construct: BIK1, Arabidopsis; CDS cloned into pET28a, 6xHis fusion; source: E. coli BL21 (DE3) Rosetta pLysS, purified (HisPur cobalt resin); not shown: His6, N-terminal, kept
T1 sequence (looked up): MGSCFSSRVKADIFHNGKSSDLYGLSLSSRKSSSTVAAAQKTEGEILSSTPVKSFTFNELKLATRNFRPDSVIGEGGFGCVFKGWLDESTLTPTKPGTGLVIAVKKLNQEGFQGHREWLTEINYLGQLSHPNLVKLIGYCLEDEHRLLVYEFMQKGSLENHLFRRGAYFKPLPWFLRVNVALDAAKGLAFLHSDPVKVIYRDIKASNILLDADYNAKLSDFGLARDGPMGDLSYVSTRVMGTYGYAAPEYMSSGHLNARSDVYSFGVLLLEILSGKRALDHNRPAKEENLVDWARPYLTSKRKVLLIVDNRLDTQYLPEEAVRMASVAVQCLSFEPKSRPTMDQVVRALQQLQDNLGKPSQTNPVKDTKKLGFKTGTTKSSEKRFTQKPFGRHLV
Experiment: pull-down; MBP pulldown of His-BIK1 by His-MBP fusion proteins; 25 mM Tris-HCl pH 7.4, 100 mM NaCl, 0.2 % Triton X-100, 1 mM DTT, 4 °C, 1-2 h
Conditions: both partners purified

- binding result: binds
B1: His-MBP-GRF2 (natural protein, Arabidopsis thaliana, UniProt Q01525 1-259, looked up)
chain: MASGREEFVYMAKLAEQAERYEEMVEFMEKVSAAVDGDELTVEERNLLSVAYKNVIGARRASWRIISSIEQKEESRGNDDHVTAIREYRSKIETELSGICDGILKLLDSRLIPAAASGDSKVFYLKMKGDYHRYLAEFKTGQERKDAAEHTLAAYKSAQDIANAELAPTHPIRLGLALNFSVFYYEILNSPDRACNLAKQAFDEAIAELDTLGEESYKDSTLIMQLLRDNLTLWTSDMQDDAADEIKEAAAPKPTEEQQ
notes: GRF2, Arabidopsis; CDS cloned into pOPINM, 6xHis-MBP fusion; source: E. coli BL21 (DE3) Rosetta pLysS, purified (HisPur cobalt resin); not shown: His6, N-terminal, kept; MBP, N-terminal, kept
